The source of these data is US20140161790A1.

The target in assay [1] is human FcRn (heterodimer of alpha chain and beta2-microglobulin) (human) (UniProt P55899). Kind of assay: Biacore (SPR), column 'hFcRn Affinity (uM)'; antibody captured on anti-hFab CM5 chip, hFcRn as analyte, PBS pH 6.0, 1:1 Langmuir fit. In general terms: Surface plasmon resonance follows binding to a sensor surface in real time, without labels.
In assay [2] the target is recombinant human TNF (human) (UniProt P01375). Description: Biacore (SPR), column 'hTNF Affinity (pM)'; antibody amine-coupled to a CM4 chip, recombinant human TNF as analyte at 6.25-200 nM in HBS-EP pH 7.4, 1:1 Langmuir fit.
Chain of recombinant human TNF (human) (P01375 77-233 limits assumed): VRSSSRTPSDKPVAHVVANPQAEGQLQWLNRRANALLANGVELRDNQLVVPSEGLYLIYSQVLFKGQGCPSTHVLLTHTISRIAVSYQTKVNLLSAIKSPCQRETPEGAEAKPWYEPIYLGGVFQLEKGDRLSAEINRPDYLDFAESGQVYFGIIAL

Chain of human FcRn (heterodimer of alpha chain and beta2-microglobulin) (human) (P55899 24-297 limits assumed, chain 1 of 2): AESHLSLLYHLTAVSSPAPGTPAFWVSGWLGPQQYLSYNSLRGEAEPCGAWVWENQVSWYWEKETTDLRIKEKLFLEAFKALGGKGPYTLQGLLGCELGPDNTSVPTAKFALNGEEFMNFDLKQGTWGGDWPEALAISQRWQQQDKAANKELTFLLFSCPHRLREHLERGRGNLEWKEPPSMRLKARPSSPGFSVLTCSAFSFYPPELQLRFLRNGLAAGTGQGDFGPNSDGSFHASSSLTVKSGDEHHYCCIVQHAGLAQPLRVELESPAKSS
Chain of human FcRn (heterodimer of alpha chain and beta2-microglobulin) (human) (P61769 21-119 limits assumed, chain 2 of 2, further chain): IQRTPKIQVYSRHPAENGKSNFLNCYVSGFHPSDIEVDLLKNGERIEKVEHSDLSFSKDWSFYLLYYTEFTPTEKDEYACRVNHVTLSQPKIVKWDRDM

Consider “Humira (Commercial) adalimumab (antibody)”, for which the dissociation constant (Kd) is 2000 nM in assay [1] and 0.00042 nM in assay [2].

The Kd is the free concentration of one partner at which half of the binding sites on the other are occupied at equilibrium, for simple one-to-one binding.
